From paper PMC10629668

Molecular target: serpin-6, endogenous in silkworm hemolymph (Bombyx mori (endogenous in larval hemolymph))
Test: co-IP; antibodies against serpin-1 or serpin-6; hemolymph of naive larvae or of larvae 24 h after injection of LPS, PGN or CDN; immunoblot with antibodies against serpin-1a, serpin-6 and CLIP2

Substance: CLIP2, endogenous in silkworm hemolymph (enzyme)
- intensity of the complex against the CLIP2-serpin-1a complex (after PAMPs stimulation, control hemolymph subtracted): 2 fold
